Patent US20250152742A1, “COMPOSITIONS AND METHODS FOR NEUROLOGICAL DISEASES” (Trames Bio, Inc., priority 2022, published 2025)

System: engineered chimeric receptor SEQ ID NO: 33 and its mutants (human α7-nAChR ligand binding domain / human GlyRα1 ion pore domain) in Lenti-X 293T cells
Test: YFP fluorescence quenching anion reporter plate reader assay (percent quench, EC50)
Format: cell-based
Settings: for YFP fluorescence quenching using CNL001 (percent quench): receptor named in row; for YFP fluorescence quenching using Varenicline, 3 nM var: ligand Varenicline 3 nM; for YFP fluorescence quenching using Varenicline, 30 nM var: ligand Varenicline 30 nM; for YFP fluorescence quenching using Varenicline, 300 nM var: ligand Varenicline 300 nM; for YFP fluorescence quenching using Varenicline, 500 nM var: ligand Varenicline 500 nM; for YFP fluorescence quenching using Varenicline, 1 uM var: ligand Varenicline 1 uM
How it was run: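 Lenti-X 293T cells co-expressing an anion-quenchable YFP were transiently transfected with receptor DNA, then ligand was added in NaI-substituted buffer (pH 7.2) after 30 min at 37 °C. Fluorescence was read about 2 min; percent quench = mean of last 10 s over 15 s pre-ligand baseline.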

B1: CODA1055: engineered receptor: R101W, Y115E, Y210W in SEQ ID NO: 33 (protein)
chain: MRCSPGGVWLALAASLLHVSLQGEFQRKLYKELVKNYNPLERPVANDSQPLTVYFSLSLLQIMDVDEKNQVLTTNIWLQMSWTDHYLQWNVSEYPGVKTVWFPDGQIWKPDILLENSADERFDATFHTNVLVNSSGHCQYLPPGIFKSSCPMDLKNFPMDVQTCKLKFGSWSYGGWSLDLQMQEADISGYIPNGEWDLVGIPGKRSERFWECCKEPYPDVTFTVTMRRRMGYYLIQMYIPSLLIVILSWISFWINMDAAPARVGLGITTVLTMTTQSSGSRASLPKVSYVKAIDIWMAVCLLFVFSALLEYAAVNFVSRQHKELLRFRRKRRHHKSPMLNLFQEDEAGEGRFNFSAYGMGPACLQAKDGISVKGANNSNTTNPPPAPSKSPEEMRKLFIQRAKKIDKISRIGFPMAFLIFNMFYWIIYKIVRREDVHNQ
modifications: synthetic sequence of chimeric LGIC
In the case of B1, the “YFP fluorescence quenching using CNL001 (percent quench)” value (1 nM CNL001, first column so headed) is reported as −12.889%, the “YFP fluorescence quenching using CNL001 (percent quench)” value (1 nM CNL001, second column so headed) is reported as −13.295% and the “YFP fluorescence quenching using TC-5619/Bradanicline (percent quench)” value (1 nM brd (TC-5619/Bradanicline)) is reported as −8.113%. The “YFP fluorescence quenching using TC-5619/Bradanicline (percent quench)” value (3 nM brd (TC-5619/Bradanicline)) was −11.136%, the “YFP fluorescence quenching using CNL001 (percent quench)” value (10 nM CNL001, first column so headed) was −10.401% and the “YFP fluorescence quenching using CNL001 (percent quench)” value (10 nM CNL001, second column so headed) was −7.981%. The “YFP fluorescence quenching using TC-5619/Bradanicline (percent quench)” value (10 nM brd (TC-5619/Bradanicline)) was 38.755%, the “YFP fluorescence quenching using TC-6683 (percent quench)” value (30 nM TC-6683) was −30.056% and the “YFP fluorescence quenching using TC-5619/Bradanicline (percent quench)” value (30 nM brd (TC-5619/Bradanicline)) was 39.111%. The “YFP fluorescence quenching using CNL001 (percent quench)” value (50 nM CNL001, first column so headed) was −1.972%, the “YFP fluorescence quenching using CNL001 (percent quench)” value (50 nM CNL001, second column so headed) was −1.661% and the “YFP fluorescence quenching using ABT-126 (percent quench)” value (50 nM abt (ABT-126)) was −21.36%. The “YFP fluorescence quenching using CNL001 (percent quench)” value (100 nM CNL001, first column so headed) was 0.277%, the “YFP fluorescence quenching using CNL001 (percent quench)” value (100 nM CNL001, second column so headed) was 4.325% and the “YFP fluorescence quenching using ABT-126 (percent quench)” value (100 nM abt (ABT-126)) was −22.28%. For the same molecule, the “YFP fluorescence quenching using TC-5619/Bradanicline (percent quench)” value (100 nM brd (TC-5619/Bradanicline)) was 61.378%, the “YFP fluorescence quenching using TC-6683 (percent quench)” value (300 nM TC-6683) was −30.801% and the “YFP fluorescence quenching using ABT-126 (percent quench)” value (300 nM abt (ABT-126)) was −14.63%. The “YFP fluorescence quenching using TC-5619/Bradanicline (percent quench)” value (300 nM brd (TC-5619/Bradanicline)) was 52.398%, the “YFP fluorescence quenching using CNL001 (percent quench)” value (1 uM CNL001, first column so headed) was 2.88% and the “YFP fluorescence quenching using CNL001 (percent quench)” value (1 uM CNL001, second column so headed) was 3.259%. The “YFP fluorescence quenching using ABT-126 (percent quench)” value (1 uM abt (ABT-126)) was −7.34%, the “YFP fluorescence quenching using TC-6683 (percent quench)” value (3 uM TC-6683) was −25.558% and the “YFP fluorescence quenching using TC-6683 (percent quench)” value (30 uM TC-6683) was −18.295%. For the same molecule, the “YFP fluorescence quenching using TC-6683 (percent quench)” value (100 uM TC-6683) was −17.554%, the “YFP fluorescence quenching (percent quench)” value (100 uM ach (acetylcholine)) was −15.63% and the “YFP fluorescence quenching (percent quench)” value (300 uM ach (acetylcholine)) was −12.05%. The “YFP fluorescence quenching (percent quench)” value (500 uM ach (acetylcholine)) was −12.87%, the “YFP fluorescence quenching (percent quench)” value (1 mM ach (acetylcholine)) was −11.55% and the “YFP fluorescence quenching (percent quench)” value (3 mM ach (acetylcholine)) was 12.68%. The “YFP fluorescence quenching (percent quench)” value (10 mM ach (acetylcholine)) was 37.58%, the “YFP fluorescence quenching using Varenicline, 3 nM var” value (first column) was 0.468 and the “YFP fluorescence quenching using Varenicline, 3 nM var” value (second column) was −10.015. For the same molecule, the “YFP fluorescence quenching using Varenicline, 30 nM var” value (first column) was −15.532, the “YFP fluorescence quenching using Varenicline, 30 nM var” value (second column) was −14.462 and the “YFP fluorescence quenching using Varenicline, 300 nM var” value (first column) was −17.027. The “YFP fluorescence quenching using Varenicline, 300 nM var” value (second column) was −15.59, the “YFP fluorescence quenching using Varenicline, 500 nM var” value (first column) was −13.343 and the “YFP fluorescence quenching using Varenicline, 500 nM var” value (second column) was −10.702. For the same molecule, the “YFP fluorescence quenching using Varenicline, 1 uM var” value (first column) was −6.604 and the “YFP fluorescence quenching using Varenicline, 1 uM var” value (second column) was −7.612.
